{"source": "paper PMC5896933", "about": "(Molecular Biology of the Cell, 2018)", "binders": {"B1": {"name": "Cdc48-GFP (natural protein, yeast, UniProt P25694 1-835, looked up)", "chain": "MGEEHKPLLDASGVDPREEDKTATAILRRKKKDNMLLVDDAINDDNSVIAINSNTMDKLELFRGDTVLVKGKKRKDTVLIVLIDDELEDGACRINRVVRNNLRIRLGDLVTIHPCPDIKYATRISVLPIADTIEGITGNLFDVFLKPYFVEAYRPVRKGDHFVVRGGMRQVEFKVVDVEPEEYAVVAQDTIIHWEGEPINREDEENNMNEVGYDDIGGCRKQMAQIREMVELPLRHPQLFKAIGIKPPRGVLMYGPPGTGKTLMARAVANETGAFFFLINGPEVMSKMAGESESNLRKAFEEAEKNAPAIIFIDEIDSIAPKRDKTNGEVERRVVSQLLTLMDGMKARSNVVVIAATNRPNSIDPALRRFGRFDREVDIGIPDATGRLEVLRIHTKNMKLADDVDLEALAAETHGYVGADIASLCSEAAMQQIREKMDLIDLDEDEIDAEVLDSLGVTMDNFRFALGNSNPSALRETVVESVNVTWDDVGGLDEIKEELKETVEYPVLHPDQYTKFGLSPSKGVLFYGPPGTGKTLLAKAVATEVSANFISVKGPELLSMWYGESESNIRDIFDKARAAAPTVVFLDELDSIAKARGGSLGDAGGASDRVVNQLLTEMDGMNAKKNVFVIGATNRPDQIDPAILRPGRLDQLIYVPLPDENARLSILNAQLRKTPLEPGLELTAIAKATQGFSGADLLYIVQRAAKYAIKDSIEAHRQHEAEKEVKVEGEDVEMTDEGAKAEQEPEVDPVPYITKEHFAEAMKTAKRSVSDAELRRYEAYSQQMKASRGQFSNFNFNDAPLGTTATDNANSNNSAPSGAGAAFGSNAEEDDDLYS"}}, "target": "T1, HA-tagged Ddi1^Δ202-299 (yeast, UniProt P40087 1-428, Δ202-299)", "T1 sequence (looked up)": "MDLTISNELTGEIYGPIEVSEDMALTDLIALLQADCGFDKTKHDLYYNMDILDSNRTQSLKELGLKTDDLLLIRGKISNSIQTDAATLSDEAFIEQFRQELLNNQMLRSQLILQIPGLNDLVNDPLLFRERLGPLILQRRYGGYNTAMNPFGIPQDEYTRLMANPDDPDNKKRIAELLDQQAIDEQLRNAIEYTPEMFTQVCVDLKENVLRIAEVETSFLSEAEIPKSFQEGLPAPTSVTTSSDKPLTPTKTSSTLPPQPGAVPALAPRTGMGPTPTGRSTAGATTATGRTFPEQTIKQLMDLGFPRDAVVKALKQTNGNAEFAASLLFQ", "assay": "co-IP"}
{"binder": "B1", "values": [{"measurement": "fold more Cdc48 bound, normalized for the amount of precipitated Ddi1^Δ202-299", "value": 2.1, "unit": "fold"}]}
